Test results published in patent US20240199696A1, “AGENTS FOR MANUFACTURE OF CO-ASSEMBLING PEPTIDES” (University of Florida Research Foundation, Incorporated, priority 2021, published 2024).
One block for each molecule: values may come before it.

T1: mCATCH(-) peptide, Ac-EQEPEPEPEQE-Am
T1 construct: Mutant of CATCH(-) with proline in place of the phenylalanine residues
T1 peptide: Ac-EQEPEPEPEQE-NH2

B1: mCATCH(+) peptide, Ac-QQKPKPKPKQQ-Am (peptide)
peptide: Ac-QQKPKPKPKQQ-NH2
notes: Mutant of CATCH(+) with proline in place of the phenylalanine residues; also called mutant CATCH(4+); mCATCH (4+)
B2: CATCH(+) peptide, Ac-QQKFKFKFKQQ-Am (peptide)
peptide: Ac-QQKFKFKFKQQ-NH2
notes: Synthetic cationic variant of Q11; also called CATCH (4+); CATCH(4+)
B3: CATCH(-) peptide, Ac-EQEFEFEFEQE-Am (peptide)
peptide: Ac-EQEFEFEFEQE-NH2
notes: Synthetic anionic variant of Q11; also called CATCH (6-); CATCH(6-)

Legend:
[1] = molecular target: CATCH(+) peptide, Ac-…-Am; test: fluorescence microscopy of binary mixtures (FIG. 33A: 0.75 µM CATCH(+))
[2] = molecular target: T1, mCATCH(-) peptide, Ac-EQEPEPEPEQE-Am; test: ThT fluorimetry, kinetic analysis
[3] = molecular target: T1, mCATCH(-) peptide, Ac-EQEPEPEPEQE-Am; test: ThT fluorimetry, equimolar mixture in 1xPBS
Method: (§1) Thioflavin T (ThT) Assay. A ThT stock solution containing 0.8 mg/mL of thioflavin T (Acros) in 1× phosphate-buffered saline (PBS) (137 mM NaCl, 2.7 mM KCl, 10 mM Na₂HPO₄ and 1.8 mM KH₂PO₄, pH 7.4) was filtered through a 0.22 μm syringe filter (Millex), and further diluted 1:10 with 1×PBS to create a working solution. Peptide samples were mixed with the ThT working solution at a 1:10 (v/v) ratio, added to a black 96-well plate (Corning), and analyzed with a Molecular Devices SpectraMax M3 spectrophotometer (excitation 450, emission 482 nm). All samples were run in triplicate, with the mean and standard deviation of these samples reported.

[4] = molecular target: the molecule itself; test: ThT fluorimetry, TEM, circular dichroism and fluorescence microscopy of the peptide alone
[5] = molecular target: B1; test: ThT fluorimetry, equimolar mixture in 1xPBS
Method: as §1

- concentration below which only diffuse fluorescence (no microparticles) was observed [1]: < 7.5 µM
Molecule: CATCH(-)GFP, recombinant fusion of CATCH(-) and superfolder green fluorescent protein

Molecule: B1
- binding result [2]: no binding

Molecule: B2
- binding result [3]: no binding
- binding result [4]: no binding

Molecule: B3
- binding result [5]: no binding
- binding result [4]: no binding
